Data set [1] addresses T1, APG30128-L32-nAPG07433.1 (synthetic).
T1 chain: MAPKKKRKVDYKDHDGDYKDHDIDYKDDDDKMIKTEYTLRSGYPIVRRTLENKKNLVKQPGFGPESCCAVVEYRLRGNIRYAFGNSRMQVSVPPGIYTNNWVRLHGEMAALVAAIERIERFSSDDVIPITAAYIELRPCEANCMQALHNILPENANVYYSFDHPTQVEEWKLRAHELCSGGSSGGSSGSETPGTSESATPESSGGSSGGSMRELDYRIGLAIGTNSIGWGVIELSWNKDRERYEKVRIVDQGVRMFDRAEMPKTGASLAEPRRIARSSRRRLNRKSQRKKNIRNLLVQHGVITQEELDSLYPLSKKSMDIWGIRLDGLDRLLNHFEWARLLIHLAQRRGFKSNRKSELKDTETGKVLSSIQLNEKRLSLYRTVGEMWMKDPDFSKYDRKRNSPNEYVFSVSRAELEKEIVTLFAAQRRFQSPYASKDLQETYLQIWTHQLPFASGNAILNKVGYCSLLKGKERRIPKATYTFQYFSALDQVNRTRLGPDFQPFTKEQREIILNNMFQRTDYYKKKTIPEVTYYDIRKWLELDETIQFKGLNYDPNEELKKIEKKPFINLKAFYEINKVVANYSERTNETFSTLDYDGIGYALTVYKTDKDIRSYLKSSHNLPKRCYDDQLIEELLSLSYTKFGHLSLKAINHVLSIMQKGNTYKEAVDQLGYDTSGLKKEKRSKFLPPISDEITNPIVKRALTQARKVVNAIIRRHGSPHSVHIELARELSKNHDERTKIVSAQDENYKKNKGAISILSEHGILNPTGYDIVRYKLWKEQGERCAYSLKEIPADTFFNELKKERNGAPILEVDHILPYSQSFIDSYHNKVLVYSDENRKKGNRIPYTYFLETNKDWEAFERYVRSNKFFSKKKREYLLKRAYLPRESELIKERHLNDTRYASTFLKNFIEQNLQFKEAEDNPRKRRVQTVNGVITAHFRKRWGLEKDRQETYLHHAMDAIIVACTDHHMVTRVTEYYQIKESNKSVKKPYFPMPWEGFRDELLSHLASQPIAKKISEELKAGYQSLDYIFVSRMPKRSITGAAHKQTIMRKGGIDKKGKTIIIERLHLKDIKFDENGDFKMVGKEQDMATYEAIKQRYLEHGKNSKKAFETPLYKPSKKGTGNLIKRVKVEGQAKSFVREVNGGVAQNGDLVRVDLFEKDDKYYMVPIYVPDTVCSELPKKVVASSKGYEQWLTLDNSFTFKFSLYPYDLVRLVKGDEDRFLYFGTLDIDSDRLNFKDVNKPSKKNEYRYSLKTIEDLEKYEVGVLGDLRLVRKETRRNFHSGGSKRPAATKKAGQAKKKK
As to the kind of experiment: cell_activity; HEK293FT; PAM SEQ 152. To be noted: tags: SV40 NLS, 3xFLAG N-term; nucleoplasmin NLS C-term. In short, it runs like this: (§1)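 Editing read out by next-generation sequencing (MiSeq 2×250) of PCR amplicons spanning the target site, analysed for INDELs or % cytosine conversion per position (position 1 nearest PAM).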

Data set [2] has as its target T2, APG30126-L32-nAPG07433.1 (synthetic).
T2 chain: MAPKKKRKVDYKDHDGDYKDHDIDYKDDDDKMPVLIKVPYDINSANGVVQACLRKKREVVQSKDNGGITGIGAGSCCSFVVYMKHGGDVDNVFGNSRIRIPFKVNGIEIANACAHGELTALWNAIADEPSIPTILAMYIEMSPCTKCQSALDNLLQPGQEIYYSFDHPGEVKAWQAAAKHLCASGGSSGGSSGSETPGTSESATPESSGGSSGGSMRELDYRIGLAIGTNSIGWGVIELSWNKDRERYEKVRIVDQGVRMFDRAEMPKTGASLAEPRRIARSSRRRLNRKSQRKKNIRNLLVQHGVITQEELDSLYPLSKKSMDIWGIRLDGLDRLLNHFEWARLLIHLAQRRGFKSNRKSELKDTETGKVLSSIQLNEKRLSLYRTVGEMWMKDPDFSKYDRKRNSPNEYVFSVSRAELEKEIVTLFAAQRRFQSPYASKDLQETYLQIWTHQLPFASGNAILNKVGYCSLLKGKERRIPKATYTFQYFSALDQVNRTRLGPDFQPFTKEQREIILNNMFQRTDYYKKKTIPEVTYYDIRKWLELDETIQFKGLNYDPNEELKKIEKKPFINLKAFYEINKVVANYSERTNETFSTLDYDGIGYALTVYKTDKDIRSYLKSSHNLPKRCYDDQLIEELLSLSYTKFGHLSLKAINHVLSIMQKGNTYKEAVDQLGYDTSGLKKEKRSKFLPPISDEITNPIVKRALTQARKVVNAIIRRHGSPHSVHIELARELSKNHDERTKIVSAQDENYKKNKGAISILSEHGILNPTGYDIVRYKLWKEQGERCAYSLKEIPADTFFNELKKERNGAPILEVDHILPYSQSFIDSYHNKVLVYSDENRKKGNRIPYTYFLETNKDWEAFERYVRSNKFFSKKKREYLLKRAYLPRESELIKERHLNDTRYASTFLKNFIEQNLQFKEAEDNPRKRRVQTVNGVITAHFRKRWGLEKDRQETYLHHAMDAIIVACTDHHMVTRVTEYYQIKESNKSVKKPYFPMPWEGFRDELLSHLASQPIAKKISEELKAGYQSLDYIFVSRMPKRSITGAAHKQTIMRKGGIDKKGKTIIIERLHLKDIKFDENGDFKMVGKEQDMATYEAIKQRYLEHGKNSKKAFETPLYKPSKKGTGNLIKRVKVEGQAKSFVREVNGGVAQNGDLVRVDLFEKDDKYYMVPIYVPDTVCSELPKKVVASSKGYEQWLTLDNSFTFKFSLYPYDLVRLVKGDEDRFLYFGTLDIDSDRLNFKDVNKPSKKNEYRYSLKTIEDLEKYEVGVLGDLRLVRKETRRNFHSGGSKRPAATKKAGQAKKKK
As to the kind of experiment: cell_activity; HEK293FT; PAM SEQ 152. To be noted: tags: SV40 NLS, 3xFLAG N-term; nucleoplasmin NLS C-term. In short, it runs like this:
as §1

B1: SGN000930 sgRNA ; SGN000930 target (ssRNA ; dsDNA)
RNA: GAACAACUCAAAUGGAAAUGAAUAUGUCAUAGUUCCAUGAAAGCCAAAAGUGGCUUUGAUGUUUCUAUGAUAAGGGUUUCGGCCCGUGGCGUCGGGGAUCGCCUGCCCAUUCCGAUGGGCUUCUCCCCAUUUAUU
DNA 1: GAACAACTCAAATGGAAATGAATAT
DNA 2: ATATTCATTTCCATTTGAGTTGTTC
Consider B1, for which the activity was 2.03 % mutated reads in data set [1] and 1.38 % mutated reads in data set [2].

The record behind these values is patent US20240301385, “DNA MODIFYING ENZYMES AND ACTIVE FRAGMENTS AND VARIANTS THEREOF AND METHODS OF USE” (LIFEEDIT THERAPEUTICS, INC., published 2024).
